Test results taken from patent US20240270821A1, “GIP/GLP1/GCG TRI-RECEPTOR AGONISTS AND USES THEREOF” (priority 2023, published 2024).
Substitutions are numbered along the chain they refer to.

B1: Example 279 (peptide)
chain: YXQGTFTSDFSXXLDKKAQXAFIEYLLEXGPSSGAPPPSGX
modifications: synthetic construct; SITE 2: note = 2-Aminoisobutyric Acid; SITE 12: note = L-ornithine; SITE 13: note = alpha-methyl-leucine; SITE 17: note = Lysine is chemically modified through conjugation of the epsilon-amino group of the Lysine side chain with (2-[2-(2-Amino-ethoxy)-ethoxy]-acetyl)-(gamma-Glu)
B2: Example 239 (peptide)
chain: B1 chain with A35X, X41S
modifications: Aib, Orn, alpha-methyl-Leu, lipidated Lys, C-terminal amide; synthetic construct; SITE 2: note = 2-Aminoisobutyric Acid; SITE 12: note = L-ornithine; SITE 13: note = alpha-methyl-leucine; SITE 17: note = Lysine is chemically modified through conjugation of the epsilon-amino group of the Lysine side chain with (2-[2-(2-Amino-ethoxy)-ethoxy]-acetyl)-(gamma-Glu)
B3: Example 90 (peptide)
chain: YXQGTFTSDFSXXLDKKAQXAFIEYLLAGGPSSGAPPPSGSE
modifications: synthetic construct; SITE 2: note = 2-Aminoisobutyric Acid; SITE 12: note = L-ornithine; SITE 13: note = alpha-methyl-leucine; SITE 17: note = Lysine is chemically modified through conjugation of the epsilon-amino group of the Lysine side chain with (2-[2-(2-Amino-ethoxy)-ethoxy]-acetyl)-(gamma-Glu)
B4: Example 233 (peptide)
chain: B1 chain with X12Q, L27I, P31E, X41E
modifications: non-natural residues; AEEA-γGlu-C18 diacid on Lys; C-terminal amide; synthetic construct; SITE 2: note = 2-Aminoisobutyric Acid; SITE 13: note = alpha-methyl-leucine; SITE 17: note = Lysine is chemically modified through conjugation of the epsilon-amino group of the Lysine side chain with (2-[2-(2-Amino-ethoxy)-ethoxy]-acetyl)-(gamma-Glu)-CO-(CH2) 16-CO2H; SITE 20: n
B5: Example 238 (peptide)
chain: B1 chain with G34X, X41S
modifications: Aib, Orn, αMeL, lipidated Lys, C-terminal amide; synthetic construct; SITE 2: note = 2-Aminoisobutyric Acid; SITE 12: note = L-ornithine; SITE 13: note = alpha-methyl-leucine; SITE 17: note = Lysine is chemically modified through conjugation of the epsilon-amino group of the Lysine side chain with (2-[2-(2-Amino-ethoxy)-ethoxy]-acetyl)-(gamma-Glu)
B6: Example 883 (peptide)
chain: YXQGTFTSDXSQXLDKKAQXAFIEYLIAGGPSSGAPPPSGE
modifications: synthetic construct; SITE 2: note = 2-Aminoisobutyric Acid; SITE 10: note = 3-(4-Pyridyl)-L-alanine; SITE 13: note = alpha-methyl-leucine; SITE 17: note = Lysine is chemically modified through conjugation of the epsilon-amino group of the Lysine side chain with (gamma-Glu)2-CO-(CH2)16-CO2H; SITE 20:
B7: Example 248 (peptide)
chain: B1 chain with P31X, X41E
modifications: Aib, Orn, αMeL, 4Pal; lysine acylated C18 diacid; C-terminal amide; synthetic construct; SITE 2: note = 2-Aminoisobutyric Acid; SITE 12: note = L-ornithine; SITE 13: note = alpha-methyl-leucine; SITE 17: note = Lysine is chemically modified through conjugation of the epsilon-amino group of the Lysine side chain with (2-[2-(2-Amino-ethoxy)-ethoxy]-acetyl)-(gamma-Glu)
B8: Example 285 (peptide)
chain: B6 chain with Q12K, G29X, P31E, E41S
modifications: synthetic construct; SITE 2: note = 2-Aminoisobutyric Acid; SITE 10: note = 3-(4-Pyridyl)-L-alanine; SITE 13: note = alpha-methyl-leucine; SITE 17: note = Lysine is chemically modified through conjugation of the epsilon-amino group of the Lysine side chain with (2-[2-(2-Amino-ethoxy)-ethoxy]-acetyl)
B9: Example 282 (peptide)
chain: YXQGTFTSDXSKXLDKKAQXAFIEYLIEXGESSGEPPPSGS
modifications: synthetic construct; SITE 2: note = 2-Aminoisobutyric Acid; SITE 10: note = 3-(4-Pyridyl)-L-alanine; SITE 13: note = alpha-methyl-leucine; SITE 17: note = Lysine is chemically modified through conjugation of the epsilon-amino group of the Lysine side chain with (2-[2-(2-Amino-ethoxy)-ethoxy]-acetyl)
B10: Example 242 (peptide)
chain: B1 chain with P31X, X41S
modifications: Aib, Orn, αMeL, 4Pal; AEEA-γGlu-C18 diacid on Lys; amide; synthetic construct; SITE 2: note = 2-Aminoisobutyric Acid; SITE 12: note = L-ornithine; SITE 13: note = alpha-methyl-leucine; SITE 17: note = Lysine is chemically modified through conjugation of the epsilon-amino group of the Lysine side chain with (2-[2-(2-Amino-ethoxy)-ethoxy]-acetyl)-(gamma-Glu)
B11: Example 241 (peptide)
chain: B1 chain with P31H, X41S
modifications: non-natural residues; C18 diacid-γGlu-AEEA on Lys; C-terminal amide; synthetic construct; SITE 2: note = 2-Aminoisobutyric Acid; SITE 12: note = L-ornithine; SITE 13: note = alpha-methyl-leucine; SITE 17: note = Lysine is chemically modified through conjugation of the epsilon-amino group of the Lysine side chain with (2-[2-(2-Amino-ethoxy)-ethoxy]-acetyl)-(gamma-Glu)
B12: Example 280 (peptide)
chain: B9 chain with E35A
modifications: synthetic construct; SITE 2: note = 2-Aminoisobutyric Acid; SITE 10: note = 3-(4-Pyridyl)-L-alanine; SITE 13: note = alpha-methyl-leucine; SITE 17: note = Lysine is chemically modified through conjugation of the epsilon-amino group of the Lysine side chain with (2-[2-(2-Amino-ethoxy)-ethoxy]-acetyl)
B13: Example 250 (peptide)
chain: B1 chain with Y25W, X29G, S39T, X41S
modifications: synthetic construct; SITE 2: note = 2-Aminoisobutyric Acid; SITE 12: note = L-ornithine; SITE 13: note = alpha-methyl-leucine; SITE 17: note = Lysine is chemically modified through conjugation of the epsilon-amino group of the Lysine side chain with (2-[2-(2-Amino-ethoxy)-ethoxy]-acetyl)-(gamma-Glu)

Assays:
Assay in all cases: cell-based or functional assay
hGLP-1R = hGLP-1R (Homo sapiens, UniProt P43220)
Chain of hGLP-1R (P43220 24-463): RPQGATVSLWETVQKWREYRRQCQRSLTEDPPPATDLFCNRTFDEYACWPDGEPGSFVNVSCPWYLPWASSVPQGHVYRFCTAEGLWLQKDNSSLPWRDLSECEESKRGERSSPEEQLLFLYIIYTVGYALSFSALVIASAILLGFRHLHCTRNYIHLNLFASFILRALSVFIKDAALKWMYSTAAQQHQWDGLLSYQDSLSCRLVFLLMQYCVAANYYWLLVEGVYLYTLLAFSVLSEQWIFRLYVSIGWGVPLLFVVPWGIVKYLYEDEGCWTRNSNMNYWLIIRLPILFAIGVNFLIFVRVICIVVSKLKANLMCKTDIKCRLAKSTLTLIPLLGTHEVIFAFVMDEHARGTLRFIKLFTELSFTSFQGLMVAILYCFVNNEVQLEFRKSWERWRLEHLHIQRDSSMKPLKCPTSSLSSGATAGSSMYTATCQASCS

[1] = biological target: T1, human GIP receptor (human) (UniProt P48546)
T1 sequence (looked up): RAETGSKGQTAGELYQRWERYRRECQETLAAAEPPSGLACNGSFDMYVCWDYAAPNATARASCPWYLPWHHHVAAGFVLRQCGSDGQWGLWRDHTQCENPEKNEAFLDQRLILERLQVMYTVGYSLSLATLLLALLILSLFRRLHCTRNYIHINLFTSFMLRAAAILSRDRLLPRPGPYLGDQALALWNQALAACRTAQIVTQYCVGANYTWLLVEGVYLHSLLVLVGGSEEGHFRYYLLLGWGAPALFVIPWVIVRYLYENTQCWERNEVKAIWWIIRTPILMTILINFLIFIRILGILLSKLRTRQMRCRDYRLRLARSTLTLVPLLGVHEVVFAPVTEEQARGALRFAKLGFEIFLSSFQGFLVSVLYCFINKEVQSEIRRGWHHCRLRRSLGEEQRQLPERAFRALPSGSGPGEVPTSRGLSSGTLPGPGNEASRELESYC

[2] = biological target: human GLP-1R (SNAP-GLP-1R expressed in HEK293 cells) (human) (UniProt P43220)
Chain of human GLP-1R (SNAP-GLP-1R expressed in HEK293 cells) (human) (P43220 24-463): as the sequence (P43220 24-463) above

[3] = biological target: human glucagon receptor (human) (UniProt P47871)
Chain of human glucagon receptor (human) (P47871 26-477): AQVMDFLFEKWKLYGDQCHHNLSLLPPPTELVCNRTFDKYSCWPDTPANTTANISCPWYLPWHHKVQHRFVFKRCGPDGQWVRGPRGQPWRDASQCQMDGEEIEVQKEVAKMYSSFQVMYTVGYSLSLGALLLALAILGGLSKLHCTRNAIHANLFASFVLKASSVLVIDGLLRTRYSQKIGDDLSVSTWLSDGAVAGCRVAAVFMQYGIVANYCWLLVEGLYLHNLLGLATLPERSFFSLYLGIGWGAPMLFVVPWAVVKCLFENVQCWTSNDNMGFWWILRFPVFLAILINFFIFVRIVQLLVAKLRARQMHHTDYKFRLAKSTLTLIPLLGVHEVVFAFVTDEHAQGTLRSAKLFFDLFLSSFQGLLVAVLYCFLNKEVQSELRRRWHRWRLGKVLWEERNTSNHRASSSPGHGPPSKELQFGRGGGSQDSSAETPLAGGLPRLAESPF

[4] = biological target: human GLP1-R (SNAP-GLP-1R expressed in HEK293 cells) (human) (UniProt P43220)
Chain of human GLP1-R (SNAP-GLP-1R expressed in HEK293 cells) (human) (P43220 24-463): as the sequence (P43220 24-463) above

Binder | Relative cAMP EC50 (hGLP-1R) | cAMP Rel EC50 (in the presence of 1% HSA) (hGLP-1R) | Relative cAMP EC50 [1] | cAMP Rel EC50 (in the presence of 1% HSA) [1] | GLP1R Internalization EC50 [2] | Internalization % TOP [2] | Relative cAMP EC50 [3] | cAMP Rel EC50 (in the presence of 1% HSA) [3] | cAMP Rel EC50, nM (1% HSA) (hGLP-1R) | cAMP Rel EC50, nM (1% HSA) [1] | cAMP Rel EC50, nM (1% HSA) [3] | GLP1R Internalization EC50 [4] | Internalization % TOP [4]
B1 | 5.77 nM | 367 nM | 0.105 nM | 11.6 nM | 115 nM | 37.5% | 5.06 nM | 427 nM |  |  |  |  | 
B2 | 2.9 nM |  | 0.0503 nM |  | 72.6 nM | 42.9% | 2.14 nM |  | 419 nM | 12 nM | 693 nM |  | 
B3 |  |  |  |  |  |  |  |  |  |  |  | 70.8 nM | 49.8%
B4 | 0.874 nM |  | 0.0884 nM |  | 24.8 nM | 41.8% | 2.25 nM |  | 223 nM | 28.1 nM | 453 nM |  | 
B5 | 2.71 nM |  | 0.0909 nM |  | 32.1 nM | 38.2% | 2.78 nM |  | 262 nM | 8.78 nM | 334 nM |  | 
B6 | 1.05 nM |  | 0.0779 nM |  | 23.9 nM | 77.1% | 4.02 nM |  |  |  |  |  | 
B7 |  | 438 nM |  | 10.6 nM | 67.4 nM | 39.5% |  | 241 nM |  |  |  |  | 
B8 | 2.87 nM | 365 nM | 0.0652 nM | 8.22 nM | 59.9 nM | 73.6% | 2.32 nM | 409 nM |  |  |  |  | 
B9 | 1.09 nM | 217 nM | 0.163 nM | 22.1 nM | 28.7 nM | 71.9% | 6.98 nM | 1830 nM |  |  |  |  | 
B10 | 3.42 nM |  | 0.0916 nM |  | 56 nM | 38.2% | 3.5 nM |  | 242 nM | 5.94 nM | 484 nM |  | 
B11 | 2.3 nM |  | 0.0748 nM |  | 64.4 nM | 37.6% | 2.71 nM |  |  |  |  |  | 
B12 | 0.95 nM | 171 nM | 0.105 nM | 15.6 nM | 39.4 nM | 74.9% | 8.63 nM | 1600 nM |  |  |  |  | 
B13 | 2.08 nM | 194 nM | 0.154 nM | 11.7 nM | 97 nM | 45% | 3.81 nM | 201 nM |  |  |  |  | 
